By stoichiometry N is commonly meant the number of molecules, sites or subunits per partner or assembly.

Our source for the stoichiometry N and degradation of PR65/A-ssrA by ClpXP in competition with equimolar UCH-L1-ssrA (5 µM each), SDS-PAGE and densitometry values is PMC6382783.

Test [1] concerns the target ThiS-YbeA-ssrA (Archaeoglobus fulgidus | Escherichia coli | not stated). In words: SEC; analytical SEC on an S200 10/300 GL column, 0.5-1 mL/min, molecular mass from Kav against a calibration curve of low molecular weight standards. (In general: Size exclusion chromatography separates by hydrodynamic size, large species first.)
The target in test [2] is ClpXP (ClpXΔN6 with ClpP14) (Escherichia coli | E. coli) (UniProt P0A6H1).
In test [3] the target is YbeA-ssrA (Escherichia coli | not stated). Kind of test: SEC; analytical SEC on an S200 10/300 GL column, 0.5-1 mL/min, molecular mass from Kav against a calibration curve of low molecular weight standards.

Substance ThiS-YbeA-ssrA came in with a stoichiometry N in test [1] of 2.

On to UCH-L1-ssrA (enzyme), for which, in test [2], the degradation of PR65/A-ssrA by ClpXP in competition with equimolar UCH-L1-ssrA (5 µM each), SDS-PAGE and densitometry worked out at 2 fold.

As to YbeA-ssrA (enzyme), in test [3], the stoichiometry N came to 2.
